The results in this text go back to publication PMC12790805, “The Structure of the Drp1 Lattice on Membrane” (Journal of molecular biology, 2025).

The target in series [1] is Drp1 with deletion of the MoRF-1 sequence (human) (UniProt O00429). In words: mass photometry; Drp1 in solution; molecular weight determined by mass photometry; conditions not given.
Series [2] concerns the molecule itself. The description is as above.

Several values for one entry are separate records, joined by “and”; a condition that tells them apart may be missing. Identical values can stand only once.

Molecule “Drp1 with deletion of the MoRF-1 sequence (from UniProt O00429-4 1-699) (enzyme)” returned a stoichiometry N in series [1] of 2.

B1: dynamin-related protein 1 (Drp1) isoform 3, full-length human (enzyme, UniProt O00429-4 1-699, looked up)
chain: MEALIPVINKLQDVFNTVGADIIQLPQIVVVGTQSSGKSSVLESLVGRDLLPRGTGIVTRRPLILQLVHVSQEDKRKTTGEENGVEAEEWGKFLHTKNKLYTDFDEIRQEIENETERISGNNKGVSPEPIHLKIFSPNVVNLTLVDLPGMTKVPVGDQPKDIELQIRELILRFISNPNSIILAVTAANTDMATSEALKISREVDPDGRRTLAVITKLDLMDAGTDAMDVLMGRVIPVKLGIIGVVNRSQLDINNKKSVTDSIRDEYAFLQKKYPSLANRNGTKYLARTLNRLLMHHIRDCLPELKTRINVLAAQYQSLLNSYGEPVDDKSATLLQLITKFATEYCNTIEGTAKYIETSELCGGARICYIFHETFGRTLESVDPLGGLNTIDILTAIRNATGPRPALFVPEVSFELLVKRQIKRLEEPSLRCVELVHEEMQRIIQHCSNYSTQELLRFPKLHDAIVEVVTCLLRKRLPVTNEMVHNLVAIELAYINTKHPDFADACGLMNNNIEEQRRNRLARELPSAVSRDKVASGGGGVGDGVQEPTTGNWRGMLKTSKAEELLAEEKSKPIPIMPASPQKGHAVNLLDVPVPVARKLSAREQRDCEVIERLIKSYFLIVRKNIQDSVPKAVMHFLVNHVKDTLQSELVGQLYKSSLLDDLLTESEDMAQRRKEAADMLKALQGASQIIAEIRETHLW
notes: human dynamin-related protein 1 (Drp1), isoform 3, UniProt O00429-4, full length; CBP tag removed with PreScission protease; also called Drp1-3; WT; source: E. coli BL21 (DE3) Star, purified (calmodulin agarose, SEC)
With B1, the “stoichiometry N” value in series [2] was 2 and 4 and 6.
